# Substitutions are numbered along the chain they refer to. In names and notes the source's numbering stands.
# B1: Pyrococcus furiosus tryptophan synthase beta-subunit PfTrpB, wild type, SEQ ID NO: 2 (Pyrococcus furiosus DSM 3638) (protein)
# chain: MWFGEFGGQYVPETLIEPLKELEKAYKRFKDDEEFNRQLNYYLKTWAGRPTPLYYAKRLTEKIGGAKIYLKREDLVHGGAHKTNNAIGQALLAKFMGKTRLIAETGAGQHGVATAMAGALLGMKVDIYMGAEDVERQKMNVFRMKLLGANVIPVNSGSRTLKDAINEALRDWVATFEYTHYLIGSVVGPHPYPTIVRDFQSVIGREAKAQILEAEGQLPDVIVACVGGGSNAMGIFYPFVNDKKVKLVGVEAGGKGLESGKHSASLNAGQVGVFHGMLSYFLQDEEGQIKPTHSIAPGLDYPGVGPEHAYLKKIQRAEYVTVTDEEALKAFHELSRTEGIIPALESAHAVAYAMKLAKEMSRDEIIIVNLSGRGDKDLDIVLKVSGNVLEHHHHHH
# B2: Pyrococcus furiosus TrpB variant PfTrpB^2G9 (T292S), SEQ ID NO: 10 (Pyrococcus furiosus DSM 3638; T292S) (protein)
# chain: B1 chain with T292S
# B3: Pyrococcus furiosus TrpB variant PfTrpB^4D11 (E17G, I68V, T292S, F274S, T321A), SEQ ID NO: 16 (Pyrococcus furiosus DSM 3638; E17G/F274S/I68V/T292S/T321A) (protein)
# chain: B1 chain with E17G, I68V, F274S, T292S, T321A
# B4: Pyrococcus furiosus TrpB variant PfTrpB^0B2 (P12L, E17G, I68V, T292S, F274S, T321A), SEQ ID NO: 12 (Pyrococcus furiosus DSM 3638; … (protein)
# chain: B1 chain with P12L, E17G, I68V, F274S, T292S, T321A
# B5: Pyrococcus furiosus tryptophan synthase complex PfTrpS (PfTrpA + PfTrpB) (Pyrococcus furiosus DSM 3638) (protein)
# chain: B1 chain
# B6: Archaeoglobus fulgidus tryptophan synthase beta-subunit AfTrpB, wild type, SEQ ID NO: 4 (Archaeoglobus fulgidus DSM 4304) (protein)
# chain: MRCWLENLSGGRKMKFGEFGGRFVPEVLIPPLEELEKAYDRFKDDEEFKARLEYYLKSYAGRPTPLYFAENLSRELGVKIYLKREDLLHGGAHKINNTIGQALLAKFMGKKRVIAETGAGQHGVATAMAAALLGLEAEIYMGAEDYERQKMNVFRMELLGAKVTAVESGSRTLKDAINEALRDWVESFEHTHYLIGSVVGPHPFPTIVRDFQAVIGKEARRQIIEAEGGMPDAIIACVGGGSNAMGIFHPFLNDDVRLIGVEAGGEGIESGRHSASLTAGSKGVLHGMLSYFLQDEEGMMLDTHSVSAGLDYPGVGPEHAYLKETGRCEYVTVNDEEALRAFKTLSKLEGIIPALESAHAIAYAMKMAEEMQRDDVLVVNLSGRGDKDMDIVRRRLALEHHHHHH
# B7: Archaeoglobus fulgidus TrpB variant AfTrpB^0B2 (P25L, E30G, I80V, F285S, T303S, T332A), SEQ ID NO: 22 (Archaeoglobus fulgidus DSM 4304; … (protein)
# chain: B6 chain with P25L, P30G, I80V, L285S, T303S, T332A
# B8: Thermotoga maritima TrpB variant TmTrpB^T292S, SEQ ID NO: 26 (Thermotoga maritima MSB8; T292S) (protein)
# chain: MKGYFGPYGGQYVPEILMPALEELEAAYEEIMKDESFWKEFNDLLRDYAGRPTPLYFARRLSEKYGARIYLKREDLLHTGAHKINNAIGQVLLAKKMGKTRIIAETGAGQHGVATATAAALFGMECVIYMGEEDTIRQKPNVERMKLLGAKVVPVKSGSRTLKDAINEALRDWITNLQTTYYVIGSVVGPHPYPIIVRNFQKVIGEETKKQILEKEGRLPDYIVACVGGGSNAAGIFYPFIDSGVKLIGVEAGGEGLETGKHAASLLKGKIGYLHGSKTFVLQDDWGQVQVSHSVSAGLDYSGVGPEHAYWRETGKVLYDAVTDEEALDAFIELSRLEGIIPALESSHALAYLKKINIKGKVVVVNLSGRGDKDLESVLNHPYVRERIRLEHHHHHH
# B9: Thermotoga maritima TrpB variant TmTrpB^0B2 (P14L, P19G, I69V, L274S, T292S) (Thermotoga maritima MSB8; I69V/L274S/P14L/P19G/T292S) (protein)
# chain: B8 chain with P14L, P19G, I69V, L274S
# B10: Pyrococcus furiosus TrpB variant M144T N166D (Table 6 prints N166T), SEQ ID NO: 20 (Pyrococcus furiosus DSM 3638; M144T/N166D) (protein)
# chain: B1 chain with M144T, N166D
# Columns and labels:
# [1] = substrate: N[C@@H](CO)C(=O)O; assay: Tryptophan formation from L-serine and indole, kinetics of wild-type PfTrpB; assay type: biochemical, Pyrococcus furiosus; conditions: other: 75° C., pH 8.0
# Experimental: (§1) Cloning, Expression, and Purification of PfTrpA and PfTrpB. The genes encoding PfTrpB (UNIPROT ID Q8U093) and PfTrpA (UNIPROT ID Q8U094) were obtained as gBlocks and cloned into pET22(b)+ for expression in E. coli BL21 E. cloni EXPRESS cells (Lucigen). Heterologous protein expression of PfTrpA and PfTrpB was performed in Terrific Broth with 100 μg/mL ampicillin (TBamp) and induced with 500 mM IPTG (final concentration 1 mM). PfTrpB was purified via a HisTrap HP column. PfTrpA was purified via a Q HP HiTrap column (flow-through), followed by ammonium sulfate precipitation, and hydrophobic interaction chromatography on a phenyl Sepharose HP HiTrap column (FIG. 3).
# (§2) Kinetics and UV-Vis Spectroscopy. Data were collected between 550 and 250 nm on a UV1800 Shimadzu spectrophotometer (Shimadzu) using 0.25-20 μM of enzyme in 200 mM potassium phosphate (pH 8.0) in a quartz cuvette. Samples were incubated at 75° C. for >3 min to ensure a stable temperature was reached. PfTrpB activity (kcat) was measured by monitoring tryptophan formation at 290 nm using Δe290=1.89 mM^−1·cm^−1.
# (§3) Selection of the Parent Enzyme, TrpB, from Pyrococcus furiosus. […]
# [2] = substrate: c1ccc2[nH]ccc2c1; assay: as above; assay type: biochemical, Pyrococcus furiosus; conditions: other: 75° C., pH 8.0
# Experimental: as §1, §2, §3
# [3] = substrate: N[C@@H](CO)C(=O)O; assay: Tryptophan formation from L-serine and indole, kinetics of PfTrpB^2G9; assay type: biochemical, Pyrococcus furiosus; conditions: other: 75° C., pH 8.0
# [4] = substrate: N[C@@H](CO)C(=O)O; assay: Tryptophan formation from L-serine and indole, kinetics of PfTrpB^4D11; assay type: biochemical, Pyrococcus furiosus; conditions: other: 75° C., pH 8.0
# [5] = substrate: N[C@@H](CO)C(=O)O; assay: purified protein, by the assay type; conditions: other: 75° C., pH 8.0
# [6] = substrate: c1ccc2[nH]ccc2c1; assay: purified protein, by the assay type; conditions: pH 8.0
# [7] = substrate: N[C@@H](CO)C(=O)O; assay: Tryptophan formation from L-serine and indole, kinetics of PfTrpS complex; assay type: biochemical, Pyrococcus furiosus; conditions: other: 75° C., pH 8.0
# [8] = substrate: c1ccc2[nH]ccc2c1; assay: Tryptophan formation from L-serine and indole, kinetics of wild-type AfTrpB; assay type: biochemical, Archaeoglobus fulgidus; conditions: other: 60° C., pH 8.0
# Experimental: as §2, with “Samples were incubated at 75° C. for >3 min to ensure a stable temperature was reached.” left out
# (§4) Cloning, expression, and purification of the different orthologs. The genes encoding AfTrpB (UNIPROT ID O28672), TmTrpB (UNIPROT ID P50909) and EcTrpB (UNIPROT ID P0A879) were obtained from IDT and cloned into pET22(b)+ using Gibson Assembly. Protein expression was carried out in E. coli BL21 E. cloni Express cells (Lucigen) by inoculating 10-mL Terrific Broth (with 100 μg/mL ampicillin (TBamp)) with a single colony and incubated over night at 37° C. and 250 rpm. These overnight cultures were used to scale up to 500-mL TBamp expression cultures, which were grown by shaking at 250 rpm and 37° C. for ˜3 h or until an OD600 of 0.8 was reached. […]
# The three TrpB homologs and their corresponding 0B2 variants were expressed and purified, and then their kinetic properties (kcat and KM of indole) were measured. […] The UV-vis spectra of the enzymes was recorded before and after adding L-serine, relying on the diagnostic spectrum of the PLP cofactor to report the steady state population of the catalytic intermediates.
# [9] = substrate: c1ccc2[nH]ccc2c1; assay: Tryptophan formation from L-serine and indole, kinetics of TmTrpB^T292S; assay type: biochemical, Thermotoga maritima; conditions: other: 75° C., pH 8.0
# Experimental: as §2, §4
# The next homolog, TmTrpB, was examined. […] The variants without the T292S mutation lacked this probative absorbance peak, but the decrease at 428 nm and concomitant increase at 350 nm are consistent with a similar, though less pronounced activation.
protein,measurement,setting,value
B1,Km,[1],1200 ± 100 µM
same,Km,[2],77 ± 12 µM
B2,Km,[3],840 µM
B3,Km,[4],1200 µM
B4,Km,[5],700 µM
same,Km,[6]; other: 75° C.,8.7 µM
B5,Km,[7],600 µM
B6,Km,[8],12 µM
B7,Km,[6]; other: 60° C.,4.8 µM
B8,Km,[9],25 µM
B9,Km,[6]; other: 75° C.,72 µM
B10,Km,[6]; other: 75° C.,42 µM

# Reference: patent US12534748B2, “Engineered beta-subunit of tryptophan synthase for production of non-canonical amino acids” (California Institute of Technology, priority 2015, dated 2026)
